Measurements from US20170052184A1 (published 2017).
Numbering of substitutions follows the chain as printed.

Experiments:
[1] = target: T1, HCV bt-134-154 (Peptide 1, HCVc 134-154) (Hepatitis C virus (numbering per HCV-1), biotin (carboxy-terminal per; N-terminal per)); assay: EIA, captured mAb + biotin peptide
T1 peptide: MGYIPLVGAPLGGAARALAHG

[2] = target: T2, HCV bt-141-161 (Peptide 2, HCVc 141-161) (Hepatitis C virus (numbering per HCV-1), biotin (carboxy-terminal per; N-terminal per)); assay: EIA, captured mAb + biotin peptide
T2 peptide: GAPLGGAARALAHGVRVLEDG

[3] = target: T3, HCV bt-151-171 (Peptide 3, HCVc 151-171) (Hepatitis C virus (numbering per HCV-1), biotin (carboxy-terminal per; N-terminal per)); assay: EIA, captured mAb + biotin peptide
T3 peptide: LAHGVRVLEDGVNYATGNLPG

[4] = target: T4, HCV Core1-169 (hepatitis C virus (HCV-1), UniProt P26664 1-169); assay: SPR sandwich, capture mAb C11-3
T4 sequence: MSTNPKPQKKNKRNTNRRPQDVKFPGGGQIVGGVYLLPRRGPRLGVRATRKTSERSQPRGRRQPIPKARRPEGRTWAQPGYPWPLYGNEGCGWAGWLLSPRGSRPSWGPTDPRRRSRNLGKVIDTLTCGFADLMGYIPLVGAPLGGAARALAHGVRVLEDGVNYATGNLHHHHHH

[5] = target: T4, HCV Core1-169; assay: SPR sandwich, capture mAb C11-9
[6] = target: T4, HCV Core1-169; assay: SPR sandwich, capture mAb C11-14
[7] = target: T4, HCV Core1-169; assay: SPR sandwich, capture mAb C11-7

B1: HCV 208B-911 (antibody, V domains shown)
VH: QVHLQQPGAELVRPGVSVKLSCKASGYTFTTYSINWMKQRPGQGLEWIGNIYPSTSHTNYNQKFRDKATMTVDKSSSTAYMQLSSPTSEDSAVYYCTINAYSMDYWGQGTSVTVSS
VL: QIVLTQSPEIMSASPGEKVTITCSASSSVSFMYWFQQKPGTSPKLWIYITSNLASGVPTRFSGSGSGTSYSLTISRMEAEDAATYYCQQRSSFPYTFGGGTKLEMKR
[1]
  Reactivity (OD 492 nm): 0.09 OD units
[2]
  Reactivity (OD 492 nm): 0.09 OD units
[3]
  Reactivity (OD 492 nm): 0.71 OD units

B2: HCV 208B-672 (antibody, V domains shown)
VH: EVKLVESGGSLVQPGGSLKLSCAASGFNFNTYAMSWVRQTPEKRLEWVAYISNGGGNTYYVDTVKGRFTISRDNAKNTLYLRMSSLKSEDTAMYYCARHGLYWGYSMDYWGQGTSVTVSS
VL: DIQMTQSPSSLSASLGERVSLTCRASQDIGGSINWLQQEPDGTIKRLIYATSSLDSGVPKRFSGSRSGSDYSLTISSLESEDFVDYYCLQYASSPPTFGGGTKLEIKR
[1]
  Reactivity (OD 492 nm): 0.08 OD units
[2]
  Reactivity (OD 492 nm): 2.79 OD units
[3]
  Reactivity (OD 492 nm): 0.1 OD units

B3: HCV 208B-612 (antibody, V domains shown)
VH: EVQLQQSGPELVKPGASVKMSCKASGYRFTSYVMHWVRQKPGQGLEWIGYIDPHNDDTKYSEKFRGKATLTSDKSSTTAYMELSSLTSEDSAVYYCVRYSYDRDYSPMDYWGQGTSVTVSS
VL: QIVLTQSPTLMSASPGEKVTMTCSASSTVTYIYWYQQKPGSSPRLWMYDTFNLVSGVPARFSGSRSGTSYFLTISSMEGEDAATYYCQQYSDSPYTFGGGTKLEIKR
[1]
  Reactivity (OD 492 nm): 3.05 OD units
[2]
  Reactivity (OD 492 nm): 3.04 OD units
[3]
  Reactivity (OD 492 nm): 0.15 OD units

B4: HCV 208A-692 (antibody, V domains shown)
VH: QGQMQQSGAELAKPGASVKLSCKTSGFTFSSSYISWLKQKPGQSLEWIAWIFAGTGNTNYNQKFTDKAQLTVDTSSSTAYMQLSSLTTEDSAIYYCAISGTGFTYWGQGTLVTVSA
VL: EVLMTQSPLSLPVSLGDQASISCRSSQSLEHSNGNTYLEWFLQRPGQPPKLLIYKVSSRFSGVPDRFSGSGSGTDFTLKISRVEAEDLGVYYCFQGSHVPFTFGSGTKLAIKR
[4]
  expected percent binding: ≤ 1%
[5]
  expected percent binding: ≤ 1%
[6]
  expected percent binding: ≤ 1%
[7]
  expected percent binding: ≤ 1%

B5: HCV 208B-471 (antibody, V domains shown)
VH: QGQLQQSGPVLVKPGASEILYCKTSGFTFSSTYISWLKQKPGQSLEWIAWIYAGTGATNYNQKFTGKAQLTVDASSNTAYMHFSGLTPEDSAIYYCAISGAGVYWGQGTLVTVSA
VL: DVVMTQTPLSLPVSLGDQASISCRSSQSLLHSNGNTYLEWYLQKPGQSPNLLIYNVSNRFSGVPDRFSGSGSGTDFALKISRVGAEDLGVYYCFQGSHVPLTFGAGTKLELKR
[1]
  Reactivity (OD 492 nm): 1.62 OD units
[2]
  Reactivity (OD 492 nm): 0.11 OD units
[3]
  Reactivity (OD 492 nm): 0.08 OD units

B6: HCV 208A-126 (antibody, V domains shown)
VH: QLQQSGPVLVKPGASVMISCKTSGYTFTENAMHWVKQSHGKSLEWIGGVNPNNGDTIFNQKFKGKATLTVDKSSNTAFTELRSLPSEESTVYYCVRRGLDFFDYWGQGTSVTVSS
VL: DIVLTQSPASLAVSLGQRATISCRASQSVSTSRYSYMHWYQQKPGQPPKLLIKYASNLESGVPARFSGSGSGTDFTLNIHPVAEEDTAAYYCQHSWEFPFTFGSGTKLEIKR
[4]
  expected percent binding: 1.2%
[5]
  expected percent binding: ≤ 1%
[6]
  expected percent binding: 1.3%
[7]
  expected percent binding: 2%

B7: HCV 208B-395 (antibody, V domains shown)
VH: QVQLQQSGAGLAKPGASVKMSCKASGYTFTANKMHWTKQRPGQGLEWIGYIDPSSGYTQYNHKIQDKATLTADTSSSTAYMQLSSLTFEDSAVYYCTNFAYWGQGTLVTVSA
VL: DIVLTQSPATLSVTPGDRVSLSCRASQRIYNYLHWYQQKSHESPRLLIKYASQSISGIPSRFSGSGSGTDFILTINSVETEDFGMYFCQQSNSWPLTFGAGTKLELRR
[1]
  Reactivity (OD 492 nm): 0.54 OD units
[2]
  Reactivity (OD 492 nm): 0.13 OD units
[3]
  Reactivity (OD 492 nm): 3.69 OD units

B8: HCV 208B-547 (antibody, V domains shown)
VH: B7 VH with G10E, A31S, T37A, Q59E, H62Q, Q65K, T74K, F88S
VL: EVVLTQSPAITAASLGQKVTITCRASSSVSYMHWYRQKSGTSPQPWIYEISTLASGVPTRFRASGSGTSYSLTISSMEAEDAAIYYCQQWNYPLTFGAGTKLELKR
[1]
  Reactivity (OD 492 nm): 0.12 OD units
[2]
  Reactivity (OD 492 nm): 0.08 OD units
[3]
  Reactivity (OD 492 nm): 2.9 OD units

B9: HCV 208B-826 (antibody, V domains shown)
VH: DVQLVESGGGLVQAGGSRKLSCAASGFPFSSFGMHWVRQAPEKGLEWVASISSRTSKIYYADNLKGRFTISRDNPKNTLFLQMTSLGSEDTAMYYCVRSVFGNSYWFFDVWGAGTTVTVSS
VL: B7 VL with I48T
[1]
  Reactivity (OD 492 nm): 0.53 OD units
[2]
  Reactivity (OD 492 nm): 1.35 OD units
[3]
  Reactivity (OD 492 nm): 0.08 OD units

B10: HCV 208A-207 (antibody, V domains shown)
VH: QGQLQQPGAEFVKPGASLKLSCRASGYTFTSYWIHWVKQRPGQGLEWIGEIDPSDSYINQNQKFRGKATLTVDKSSSTAYMELSGLTSEDSAVYYCARHYYGVLDSWGQGTTLTVSS
VL: B7 VL with I48T
[1]
  Reactivity (OD 492 nm): 1.24 OD units
[2]
  Reactivity (OD 492 nm): 0.17 OD units
[3]
  Reactivity (OD 492 nm): 0.08 OD units

B11: HCV 208A-210 (antibody, V domains shown)
VH: QVQLQQSGPELVKPGASMRISCKASGYTFTSYYVHWIKQRPGQGLEWIGCIYPGDVNTDYNEKFKGKATLTADKSSSTAYMQVSTLTSEDSAIYFCVLYYYGSFAYWGQGTLVTVSA
VL: B8 VL with V2I, K18N, P45L, T52R, L53R, T59A, L104V
[1]
  Reactivity (OD 492 nm): 0.06 OD units
[2]
  Reactivity (OD 492 nm): 1.15 OD units
[3]
  Reactivity (OD 492 nm): 0.05 OD units

B12: HCV 208B-327 (antibody, V domains shown)
VH: EVQLVESGGGLVKPGGSLKLSCAASGFTFSDSYMYWVRQTPDQRLEWVATISDGGSYTFYPDSVKGRFTISRDNAQNNLYLQMSSLKSEDTAMYYCASPHAGYFGWFAYWGRGTLVTVSA
VL: DIVMTQAAFSNPVTPGTSVSISCRSSKSLLHSNGITYLYWYLQKPGQSPQLLIYQMSKIASGVPDRFRSSGSGTDFTLRISRVEAADVGVYYCAQNLELPWTFGGGTKLEIKR
[1]
  Reactivity (OD 492 nm): 0.07 OD units
[2]
  Reactivity (OD 492 nm): 0.05 OD units
[3]
  Reactivity (OD 492 nm): 0.49 OD units

B13: HCV 208B-517 (antibody, V domains shown)
VH: QVQLKQSGPGLVQPSQSLSITCTVSGFSLITHGVHWVRQSPGKGLEWLGVIWSGGSTDYNAAFISRLSISKDTSKSQVFLKMSSLQADDTAIYYCARNGGATAFDYWGQGTTLTVSS
VL: DIVMTQSPATLSVTPGDRVSLSCRASQSISDYLHWYQQKSHESPRLLIKYASQSISGIPSRFRGSGSGSHFTLSINSVEPEDVGVYYCQNGHSFPWTFGGGTKLEIKR
[1]
  Reactivity (OD 492 nm): 0.1 OD units
[2]
  Reactivity (OD 492 nm): 0.41 OD units
[3]
  Reactivity (OD 492 nm): 0.7 OD units

B14: HCV 208B-822 (antibody, V domains shown)
VH: QVQLKQSGPGLVQPSQSLSITCTVSGFSLITYGVHWVRQSPGKGLEWLGVIWGGGSTGYNAAFVSRLNITKDNSKSQVFFKMNSLQPDDTAIYYCARNGGATVFDYWGQGTTLTVSS
VL: B13 VL with S28T, R63S
[1]
  Reactivity (OD 492 nm): 0.08 OD units
[2]
  Reactivity (OD 492 nm): 1.35 OD units
[3]
  Reactivity (OD 492 nm): 0.07 OD units

B15: HCV 208B-515 (antibody, V domains shown)
VH: QVQLQQPGAELVKPGASLKLSCRASGYTFTSYWIHWVKQRPGQGLEWIGEIDPSDSYTNYNQKFKGKATLTVDKSSRAAYMQLSSLTSEDSAVYYCARHYYGVFDSWGQGTKLTVSS
VL: QIVFTQYPAIMSASLGERVTMTCTASSSVTSSYLHWFQQKPGSSPKLWIYSTSNPGSGVPARFSGRGSGTSYSLSISSMEAEDAATYYCLQFHRSPWTFGGGTKLEIRR
[1]
  Reactivity (OD 492 nm): 0.51 OD units
[2]
  Reactivity (OD 492 nm): 0.13 OD units
[3]
  Reactivity (OD 492 nm): 0.06 OD units

B16: HCV 208B-353 (antibody, V domains shown)
VH: EVQLVESGGDLVKPGGSLKLSCAASGFTFNHYGMSWVRQPPDKRLEWVATISSGGGYTYYPDSVKGRFTISRDNAKDTLSLQMSSLRSGDTAVYYCASLYGSLFAYWGQGTLVTVSA
VL: DIVMTQSQKFMSTTVGDRVRVTCKASQNVGTAVAWYQQKPGQSPKLLIYSASNRYTGVPDRFTGSGSGTDFTLTITNMQSEDLADYFCQQYSTYPLTFGSGAKLEIKR
[1]
  Reactivity (OD 492 nm): 0.07 OD units
[2]
  Reactivity (OD 492 nm): 2.47 OD units
[3]
  Reactivity (OD 492 nm): 0.07 OD units

B17: HCV 208B-793 (antibody, V domains shown)
VH: EVKLVESGGGLVQPGGSLKLSCAASGFTFSSYAMSWVRQTPERRLEWVTYISNGGGSTYYSDTVKGRFTFSRDNAKNTLYLQMSSLKSEDTAMYYCARHGLGRTGFASWGQGTLVTVSA
VL: DIVMTQSHKFMSTSVGDRVSITCKASQDVGTAVAWYQQKPGQSPKLLIYWASTRHTGVPDRFTGSGSGTDFTLTISNVQSEDLADYFCQQYSNYLTFGAGTKLEVKR
[1]
  Reactivity (OD 492 nm): 0.09 OD units
[2]
  Reactivity (OD 492 nm): 0.72 OD units
[3]
  Reactivity (OD 492 nm): 0.09 OD units
